This note sets out measurements from the supplement of paper PMC7877785.

A short description of the data set: self-splicing fitness, log relative to wild type (ln ratio); higher = more splicing; Tetrahymena group I intron in knt gene, E. coli kanamycin selection, DiMSum; sequences stand for … in CUCUCU…GGAGGGAAAAGUUAUCAGGCAUGCACCUGGUAGCUAGUCUUUAAACCAAUAGAUUGCAUCGGUUUAAAAGGCAAGACCGUCAAAUUGCGGGAAAGGGGUCAACAGCCGUUCAGUACCAAGUCUCAGGGGAAACUUUGAGAUGGCCUUGCAAAGGGUAUGGUAAUAAGCUGACGGACAUGGUCCUAACCACGCAGCCAAGUCCUAAGUCAACAGAUCUUCUGUUGAUAUGGAUGCAGUUCACAGACUAAAUGUCGGUCGGGGAAGAUGUAUUCUUCUCAUAAGAUAUAGUCGGACCUCUCCUUAAUGGGAGCUAGCGGAUGAAGUGAUGCAACACUGGAGCCGCUGGGAACUAAUUUGUAUGCGAAAGUAUAUUGAUUAGUUUUGGAGUACUCGUGGUCG
The method in brief:
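Six replicate transformations of E. coli BL21(DE3) with a pET-22b(+) library were grown overnight at 37°C or 30°C. The library randomised all eight P1ex-region intron nucleotides, the intron lying in the knt kanamycin-resistance gene, and plates were LB agar with or without 25 μg/mL kanamycin plus 100 μg/mL carbenicillin, 50 μM IPTG and 0.2% rhamnose. Pooled colonies were amplicon-sequenced on an Illumina HiSeq 2500, and fitness is the DiMSum error-weighted combination of wild-type-normalised replicate fold changes, kanamycin versus none.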

± gives the uncertainty stated by the source.

On to AGCCAGCAAUAUUACGACAU, for which the “self-splicing fitness (ln)” value runs as follows: (30 °C) -1.512 ± 0.012; (37 °C) -0.664 ± 0.032.
Consider GUCGAGCAAUAUUACGGGGG, for which the “self-splicing fitness (ln)” value (30 °C) is -2.05 ± 0.29.
With GCGUAGCAAUAUUACGAUGC, the “self-splicing fitness (ln)” value (30 °C) is -3.71 ± 0.32 and the “self-splicing fitness (ln)” value (37 °C) is -1.39 ± 0.27.
The corresponding values for UACCAGCAAUAUUACGUUUA are -0.529 ± 0.052 and -0.264 ± 0.064.
In the case of CGCCAGCAAUAUUACGUUAC, the “self-splicing fitness (ln)” value runs as follows: (30 °C) -1.91 ± 0.22; (37 °C) -3.49 ± 0.31.
With GAUGAGCAAUAUUACGACCG, the “self-splicing fitness (ln)” value was -2.84 ± 0.36 (30 °C) and -1.95 ± 0.43 (37 °C).
In the case of UUCAAGCAAUAUUACGGACU, the “self-splicing fitness (ln)” value is, setting by setting: (30 °C) -2.76 ± 0.17; (37 °C) -0.504 ± 0.13.
As for UUGUAGCAAUAUUACGAGGC, the “self-splicing fitness (ln)” value was -3.07 ± 0.27 (30 °C) and -1.77 ± 0.31 (37 °C).
CGCCAGCAAUAUUACGUAAU: the “self-splicing fitness (ln)” value reads like this: (30 °C) -2.67 ± 0.12; (37 °C) -1.71 ± 0.15.
In the case of ACAAAGCAAUAUUACGGCCG, the “self-splicing fitness (ln)” value was -0.257 ± 0.09 (30 °C) and 0.0921 ± 0.14 (37 °C).
With UUUCAGCAAUAUUACGCCGG, the “self-splicing fitness (ln)” value (30 °C) is -0.905 ± 0.17 and the “self-splicing fitness (ln)” value (37 °C) is -1.68 ± 0.25.
GCAAAGCAAUAUUACGCAUG: the “self-splicing fitness (ln)” value is -3.61 ± 0.22 (30 °C) and -2.97 ± 0.27 (37 °C).
In the case of AGCAAGCAAUAUUACGAUGG, the “self-splicing fitness (ln)” value runs as follows: (30 °C) -2.63 ± 0.15; (37 °C) -2.01 ± 0.2.
For CUGGAGCAAUAUUACGCAUG, the “self-splicing fitness (ln)” value is, setting by setting: (30 °C) -2.07 ± 0.13; (37 °C) -0.898 ± 0.17.
As for GGAAAGCAAUAUUACGCACG, the “self-splicing fitness (ln)” value is, setting by setting: (30 °C) -1.16 ± 0.19; (37 °C) 0.0479 ± 0.17.
For CCGCAGCAAUAUUACGGUGG, the “self-splicing fitness (ln)” value is, setting by setting: (30 °C) -3.11 ± 0.12; (37 °C) -3.48 ± 0.2.
CGUGAGCAAUAUUACGCGUG: the “self-splicing fitness (ln)” value was -2 ± 0.13 (30 °C) and -0.684 ± 0.1 (37 °C).
Turning to UGACAGCAAUAUUACGAUCG, the “self-splicing fitness (ln)” value (30 °C) was 0.0362 ± 0.077 and the “self-splicing fitness (ln)” value (37 °C) is 0.761 ± 0.1.
For GUGGAGCAAUAUUACGCACU, the “self-splicing fitness (ln)” value (30 °C) stood at 0.427 ± 0.33.
UUAGAGCAAUAUUACGUAGA: the “self-splicing fitness (ln)” value was -2.18 ± 0.17 (30 °C) and -1.41 ± 0.19 (37 °C).
On to GAUGAGCAAUAUUACGAAAU, for which the “self-splicing fitness (ln)” value was -1.53 ± 0.18 (30 °C) and -1.92 ± 0.37 (37 °C).
The corresponding values for AACCAGCAAUAUUACGUAGC are -2.7 ± 0.089 and -2.17 ± 0.11.
As to UGUUAGCAAUAUUACGUCUA, the “self-splicing fitness (ln)” value reads like this: (30 °C) -0.124 ± 0.072; (37 °C) -0.175 ± 0.071.
With AAAAAGCAAUAUUACGACUA, the “self-splicing fitness (ln)” value by setting is: (30 °C) -0.0366 ± 0.1; (37 °C) 0.028 ± 0.1.
Consider GCUAAGCAAUAUUACGUAUU, for which the “self-splicing fitness (ln)” value is, setting by setting: (30 °C) -1.16 ± 0.079; (37 °C) -1.02 ± 0.11.
Turning to UGUUAGCAAUAUUACGGCGC, the “self-splicing fitness (ln)” value is -2.65 ± 0.21 (30 °C) and -2.22 ± 0.27 (37 °C).
CCAUAGCAAUAUUACGUGAA: the “self-splicing fitness (ln)” value reads like this: (30 °C) -3.25 ± 0.21; (37 °C) -2.07 ± 0.26.
With CCGCAGCAAUAUUACGACUC, the “self-splicing fitness (ln)” value is -3.06 ± 0.23 (30 °C) and -2.02 ± 0.26 (37 °C).
For CUCCAGCAAUAUUACGACUG, the “self-splicing fitness (ln)” value runs as follows: (30 °C) -3.12 ± 0.14; (37 °C) -2.83 ± 0.16.
The like results for CCUAAGCAAUAUUACGCACA were, in that order, -4.21 ± 0.46 and -1.2 ± 0.35.
The corresponding values for UUCGAGCAAUAUUACGUGUG are -2.52 ± 0.13 and -1.59 ± 0.12.
In the case of ACCUAGCAAUAUUACGGGCA, the “self-splicing fitness (ln)” value reads like this: (30 °C) -0.58 ± 0.11; (37 °C) 0.19 ± 0.13.
The corresponding values for GUGAAGCAAUAUUACGGCGU are 0.663 ± 0.12 and 0.727 ± 0.15.
In the case of CCUAAGCAAUAUUACGAAGA, the “self-splicing fitness (ln)” value runs as follows: (30 °C) -1.82 ± 0.22; (37 °C) -1.82 ± 0.22.
For UAGUAGCAAUAUUACGCAGG, the “self-splicing fitness (ln)” value reads like this: (30 °C) -2.8 ± 0.22; (37 °C) -1.74 ± 0.23.
As for UCUCAGCAAUAUUACGGUUU, the “self-splicing fitness (ln)” value is -1.91 ± 0.082 (30 °C) and -0.695 ± 0.081 (37 °C).
In the case of GAGUAGCAAUAUUACGGGUU, the “self-splicing fitness (ln)” value reads like this: (30 °C) -2.25 ± 0.14; (37 °C) -1.81 ± 0.2.
For the sequence GCUGAGCAAUAUUACGGUAU, the “self-splicing fitness (ln)” value was -2.63 ± 0.2 (30 °C) and -2.41 ± 0.2 (37 °C).
